The record followed here is publication PMC7893823, “Structural basis of nucleosomal histone H4 lysine 20 methylation by SET8 methyltransferase” (Life Science Alliance, 2021).

The target of this experiment is histone H4 (human, UniProt P62805 1-103). In words: cryo-EM structure; NCP or NCP^CENP-A (0.52 μM) mixed with SET8 (1.0 or 0.94 μM) at 25°C with 0.10 mM S-adenosyl-L-homocysteine, 50 mM NaCl, 50 mM KCl; complex purified by GraFix (sucrose gradient with paraformaldehyde cross-linking). The conditions noted are these: both partners purified.

B1: human SET8 (KMT5A Isoform 2) (enzyme)
chain: MARGRKMSKPRAVEAAAAAAAVAATAPGPEMVERRGPGRPRTDGENVFTGQSKIYSYMSPNKCSGMRFPLQEENSVTHHEVKCQGKPLAGIYRKREEKRNAGNAVRSAMKSEEQKIKDARKGPLVPFPNQKSEAAEPPKTPPSSCDSTNAAIAKQALKKPIKGKQAPRKKAQGKTQQNRKLTDFYPVRRSSRKSKAELQSEERKRIDELIESGKEEGMKIDLIDGKGRGVIATKQFSRGDFVVEYHGDLIEITDAKKREALYAQDPSTGCYMYYFQYLSKTYCVDATRETNRLGRLINHSKCGNCQTKLHDIDGVPHLILIASRDIAAGEELLYDYGDRSKASIEAHPWLKH
notes: SET8 (KMT5A), human, isoform 2, UniProt Q9NQR1-2; residue numbers (Arg188, Arg192) count on isoform 2; His6 tag removed with PreScission protease (modified pET15b vector); also called PR-SET7; SETD8; source: E. coli BL21(DE3), purified (Ni-NTA, Mono S, Superdex 200)
Regarding B1, the binding result is recorded as “binds”.
